Reference: patent US6924101B2, “Methods for identifying anti-microbial agents” (priority 1997, dated 2005)

B1: pJB53: pLEX5BA with a 714 bp PstI/HindIII fragment of viaA in antisense orientation; expresses antisense RNA (SEQ ID NO: 4) (nucleic acid)
antisense: CUGCAGGCUGAGGUGUUGCCCUUACAAAUGCAACAACGACAUGGAUUACAACACCCUCAUAAACAAAGGGCAAUCACCUGAUCUAAGCUCUUACCUAUGACAGUGAUAGGUUAUGCCUUUUACUCGACUUUUGCACUGACUGAAAAGGACAAAUUAAUGUUAAAAAAGAUACUUUUACUGGCUCUGCUUCCUGCAAUCGCCUUCGCAGAGGAACUUCCUGCUCCAGUAAAAGCGAUUGAAAAACAGGGCAUUACAAUCAUCAAAACAUUCGAUGCCCCCGGAGGAAUGAAAGGUUAUCUCGGAAAGUAUCAGGAUAUGGGCGUCACCAUCUACCUGACUCCAGAUGGUAAGCACGCUAUCUCUGGUUACAUGUACAACGAGAAAGGUGAAAACCUGAGUAACACACUUAUCGAAAAAGAAAUUUACGCACCAGCCGGACGCGAAAUGUGGCAACGGAUGGAACAAUCCCACUGGCUCCUCGACGGUAAAAAAGAUGCGCCGGUCAUUGUCUACGUCUUCGCCGAUCCGUUCUGCCCAUAUUGUAAACAGUUCUGGCAGCAGGCGCGCCCGUGGGUAGAUUCUGGCAAAGUGCAAUUAAGAACAUUGUUGGUUGGGGUUAUCAAGCCAGAAAGCCCGGCGACAGCAGCGGCAAUUCUUGCCUCCAAAGAUCCCGCAAAAACCUGGCAACAAUAUGAAGCCUCUGGUGGCAAGCUU
modifications: expressed from plasmid pLEX5BA; Escherichia coli viaA
B2: pJB59: pLEX5BA with a 451 bp EcoRI/BamHI fragment of orf1/ampG in antisense orientation; expresses antisense RNA (SEQ ID NO: 7) (nucleic acid)
antisense: GAAUUCGUGGAUGCUGGUGUCCUGAGACAUAUCAGCGAUGGUAUCGGUCAGCACACUGUUAACCGCAUCGGCGAUAUUUUUGUUGGAGGCCUGGAACGCACCUUCAACGUUGUAGCUGGCACGAUAGUUUUUGGUCAUUUUGUUGCCAUUCUGCGCGGUAGCGAUGAUGGCGAUAUCCGCUUUGGUCGCGAUGUUGUAGCGCACGUUGCCCUGGGACACGUCAGCAUACAGUUGGCUAACGAUGAUUUGCAGAUUAACCGGGCCAUUCGGACCAACCAUGUAACCACGCGCGGUCAUCUGUUUUUCCAGCACUUCUUGCAGCAGGAAACGCAGAUCGCGGGAGGCGGUCAGGGUAACGAUUUGAUUAUCGCGGGUGACUUUUGCCAGCGCCUGAUCGGUACGCUGAUCGGCACCAUUAAUGCUUACGGUGACGCCCAUCAGGCUUGGAUCC
modifications: expressed from plasmid pLEX5BA; Escherichia coli ampG

Tests used:
[1] = system: E. coli DH5α; test: Growth curves (OD450) in liquid LB media with or without 1 mM IPTG (FIG. 7); type: cell-based
Method: FIG. 7 is a graph showing growth curves of E. coli DH5α containing pJB37, pJB57 and pJB59 in liquid media in the presence and absence of IPTG.
Inhibition of bacterial growth after IPTG induction. Growth curves were carried out by back diluting cultures 1:20 into fresh media with or without 1 mM IPTG and measuring the OD450 every 30 minutes (min). To study transcriptional induction in exponential phase, cultures were diluted 1:10^6 or as indicated. The viability (CFU/ml) was determined over time by plating aliquots of the culture on agar with or without IPTG.
Kinetics of inhibition during exponential growth by antisense RNA. The kinetics of antisense inhibition was examined for strains carrying pJB37, pJB53, pJB57 or pJB59. Overnight cultures of each strain were diluted 1:20 into LB media containing 1 mM IPTG or LB media without IPTG. The OD450 was then measured on the liquid cultures. […] After induction of antisense RNA expression, a few generations of cell division presumably are required in order to dilute endogenous gene product present at the initiation of induction.

[2] = system: E. coli DH5α; test: Viability (CFUs/ml) over time after induction of antisense RNA expression (FIG. 8); type: cell-based
Method: FIG. 8 is a graph showing the viability of DH5α strains at various times after induction of antisense RNA expression. Strains contained the following plasmids: squares: pJB37; diamonds: pJB53; circles: pJB57; and triangles; pJB59.
Inhibition of viability by antisense RNA. The viability over time of the four strains expressing the antisense RNAs described above was also examined. Overnight cultures of each strain were diluted 1:100 into LB medium containing 1 mM IPTG. Aliquots of each culture were plated on LB agar containing ampicillin at intervals thereafter to determine CFUs/ml.

[3] = system: E. coli DH5α; test: Colony formation on M9 agar with or without 1 mM IPTG (FIG. 6); type: cell-based; details: M9 agar containing 1 mM IPTG vs without IPTG
Method: FIG. 6 is a bar graph showing the effect of inducing lepB, ddlB, viaA or orf1 antisense RNA expression on colony formation in E. coli DH5α. Striped bars indicate colony forming units (CFUs) per ml of culture for strains grown on semi-solid media in the absence of the inducer IPTG. Solid bars indicate CFUs/ml for strains grown in the presence of IPTG.
Cell proliferation for each strain was measured by diluting overnight cultures 1:10^6 into M9 medium. After growth to an OD450 of 0.2, aliquots of each culture were plated on M9 agar without IPTG or M9 agar containing 1 mM IPTG. […] Colony formation by cells carrying pJB57 was inhibited more than 100 fold. The colony formation of strains carrying pJB59 was inhibited more than 1000 fold.

[4] = system: E. coli DH5α; test: Effect of different concentrations of inducer IPTG on viability (FIG. 9); type: cell-based
Method: FIG. 9 is a graph showing the effect of varying concentrations of inducer on the viability of DH5α containing pJB37 (panel A) or pJB53 (panel B).
Effect of different concentrations of transcriptional inducer. Experiments were carried out to determine the effect of different concentrations of the inducer IPTG on bacterial growth and viability with the two clones where antisense RNA is bacteriocidal. Overnight cultures were diluted 1:100 into LB media containing 0, 10, 100 500 or 1000 micro molar (μM) IPTG. At the time of induction and every 2 hours thereafter, aliquots were plated on LB/ampicillin agar to determine CFUs/ml.

[5] = system: Salmonella typhimurium; test: Growth of transformants plated on LB with or without 1 mM IPTG; type: cell-based
Method: In order to examine the effectiveness of the antisense RNAs in a related species, Salmonella typhimurium was transformed with pJB37 or pJB53. The ampicillin-resistant transformants were plated on LB with or without 1 mM IPTG.

[6] = system: JRG58201; test: Growth and viability of ampG null strain after IPTG induction; type: cell-based, E. coli
Source text: Lethality of pJB59 antisense RNA requires inhibition of orf1. The polycistronic mRNA that encodes ampG in E. coli has an upstream ORF, termed orf1 herein: The antisense RNA made by pJB59 is complementary to orf1. In order to determine whether translational inhibition of orf1 or of ampG was the cause of the lethality of pJB59 antisense RNA, pJB59 was transformed into the ampG null strain, JRG58201. Jacobs, C., et al, EMBO J. 13:4684-4694 (1993). JRG58201 has a defect in the ampG gene but has no known defect in the orf1 gene.

Molecule	time at which cell mass began to decrease ([1]; LB, 1 mM IPTG)	cell lysis, microscopic examination ([1]; after induction of antisense RNA)	bacteriocidal or bacteriostatic [2]	reduction of viability ([2]; 6 hours after induction, 1 mM IPTG, LB)	effect on cell growth or colony formation when induced with IPTG [3]	effect on colony forming ability ([4]; 10 μm IPTG)	anti-proliferative effect ([4]; 500 μm IPTG)	effect on the time of cell death of a 2 fold increase of IPTG ([4]; 1000 μm IPTG)	growth after induction of the antisense RNA [5]	time after induction until significant effect on the increase in cell mass (OD450) ([1]; LB, 1 mM IPTG)	time after which cell mass stopped increasing (did not decrease) ([1]; LB, 1 mM IPTG)	growth and viability when antisense RNA is expressed ([2]; 1 mM IPTG, LB)	inhibition of colony formation [3]	growth and viability after IPTG induction [6]
B1	about 4 hours	did not	bacteriocidal	about 3 logs	unable to form colonies	minimal effect	near maximal	little effect	greatly inhibited	–	–	–	–	–
B2	–	–	bacteriostatic	–	–	–	–	–	–	about 3 hours	about 3 hours	growth is inhibited but viability is not reduced	more than 1000 fold	inhibited
